B1: SLC7A9-SLC3A1 complex (Homo sapiens) (protein)
chain: MGDTGLRKRREDEKSIQSQEPKTTSLQKELGLISGISIIVGTIIGSGIFVSPKSVLSNTEAVGPCLIIWAACGVLATLGALCFAELGTMITKSGGEYPYLMEAYGPIPAYLFSWASLIVIKPTSFAIICLSFSEYVCAPFYVGCKPPQIVVKCLAAAAILFISTVNSLSVRLGSYVQNIFTAAKLVIVAIIIISGLVLLAQGNTKNFDNSFEGAQLSVGAISLAFYNGLWAYDGWNQLNYITEELRNPYRNLPLAIIIGIPLVTACYILMNVSYFTVMTATELLQSQAVAVTFGDRVLYPASWIVPLFVAFSTIGAANGTCFTAGRLIYVAGREGHMLKVLSYISVRRLTPAPAIIFYGIIATIYIIPGDINSLVNYFSFAAWLFYGLTILGLIVMRFTRKELERPIKVPVVIPVLMTLISVFLVLAPIISKPTWEYLYCVLFILSGLLFYFLFVHYKFGWAQKISKPITMHLQMLMEVVPPEEDPE
B2: SLC3A1 (natural protein, human)
chain: AEDKSKRDSIEMSMKGCQTNNGFVHNEDILEQTPDPGSSTDNLKHSTRGILGSQEPDFKGVQPYAGMPKEVLFQFSGQARYRIPREILFWLTVASVLVLIAATIAIIALSPKCLDWWQEGPMYQIYPRSFKDSNKDGNGDLKGIQDKLDYITALNIKTVWITSFYKSSLKDFRYGVEDFREVDPIFGTMEDFENLVAAIHDKGLKLIIDFIPNHTSDKHIWFQLSRTRTGKYTDYYIWHDCTHENGKTIPPNNWLSVYGNSSWHFDEVRNQCYFHQFMKEQPDLNFRNPDVQEEIKEILRFWLTKGVDGFSLDAVKFLLEAKHLRDEIQVNKTQIPDTVTQYSELYHDFTTTQVGMHDIVRSFRQTMDQYSTEPGRYRFMGTEAYAESIDRTVMYYGLPFIQEADFPFNNYLSMLDTVSGNSVYEVITSWMENMPEGKWPNWMIGGPDSSRLTSRLGNQYVNVMNMLLFTLPGTPITYYGEEIGMGNIVAANLNESYDINTLRSKSPMQWDNSSNAGFSEASNTWLPTNSDYHTVNVDVQKTQPRSALKLYQDLSLLHANELLLNRGWFCHLRNDSHYVVYTRELDGIDRIFIVVLNFGESTLLNLHNMISGLPAKMRIRLSTNSADKGSKVDTSGIFLDKGEGLIFEHNTKNLLHRQTAFRDRCFVSNRACYSSVLNILYTSC
modifications: five glycosylation sites in the extracellular domain
notes: SLC3A1 (rBAT), human; heavy chain subunit: small N-terminal cytoplasmic region, a single TM and a large extracellular domain; Two copies stand in the solved hetero-tetramer; also called rBAT; heavy chain of the SLC7A13-SLC3A1 cystine transporter
B3: SLC7A13-SLC3A1 complex (Homo sapiens) (protein)
chain: MDRGEKIQLKRVFGYWWGTSFLLINIIGAGIFVSPKGVLAYSCMNVGVSLCVWAGCAILAMTSTLCSAEISISFPCSGAQYYFLKRYFGSTVAFLNLWTSLFLGSGVVAGQALLLAEYSIQPFFPSCSVPKLPKKCLALAMLWIVGILTSRGVKEVTWLQIASSVLKVSILSFISLTGVVFLIRGKKENVERFQNAFDAELPDISHLIQAIFQGYFAYSGGACFTLIAGELKKPRTTIPKCIFTALPLVTVVYLLVNISYLTVLTPREILSSDAVAITWADRAFPSLAWIMPFAISTSLFSNLLISIFKSSRPIYLASQEGQLPLLFNTLNSHSSPFTAVLLLVTLGSLAIILTSLIDLINYIFFTGSLWSILLMIGILRRRYQEPNLSIPYKVFLSFPLATIVIDVGLVVIPLVKSPNVHYVYVLLLVLSGLLFYIPLIHFKIRLAWFEKMTCYLQLLFNICLPDVSEE
notes: heterodimeric light/heavy chain transporter, dimer of heterodimers; ectopically expressed in HEK293T / HEK293 cells (Expi293 for cryo-EM); with Amino acid transporter heavy chain SLC3A1
B4: SLC7A11-SLC3A2 complex (Homo sapiens) (protein)
chain: MVRKPVVSTISKGGYLQGNVNGRLPSLGNKEPPGQEKVQLKRKVTLLRGVSIIIGTIIGAGIFISPKGVLQNTGSVGMSLTIWTVCGVLSLFGALSYAELGTTIKKSGGHYTYILEVFGPLPAFVRVWVELLIIRPAATAVISLAFGRYILEPFFIQCEIPELAIKLITAVGITVVMVLNSMSVSWSARIQIFLTFCKLTAILIIIVPGVMQLIKGQTQNFKDAFSGRDSSITRLPLAFYYGMYAYAGWFYLNFVTEEVENPEKTIPLAICISMAIVTIGYVLTNVAYFTTINAEELLLSNAVAVTFSERLLGNFSLAVPIFVALSCFGSMNGGVFAVSRLFYVASREGHLPEILSMIHVRKHTPLPAVIVLHPLTMIMLFSGDLDSLLNFLSFARWLFIGLAVAGLIYLRYKCPDMHRPFKVPLFIPALFSFTCLFMVALSLYSDPFSTGIGFVITLTGVPAYYLFIIWDKKPRWFRIMSEKITRTLQIILEVVPEEDKL

Tests used:
[1] = substrate: N[C@@H](CSSC[C@H](N)C(=O)O)C(=O)O; assay: cells, lysate or membranes; settings: cellular transport (Vmax given per cell)
[2] = target: the molecule itself; assay: cryo-EM structure; apo state; SLC7A13 and SLC3A1 co-expressed in Expi293 cells, complex purified by affinity purification and SEC; overall resolution 2.64 Å
[3] = substrate: N[C@@H](CSSC[C@H](N)C(=O)O)C(=O)O; assay: cells, lysate or membranes; type: cell-based, Homo sapiens; settings: cellular transport (Vmax given per cell)

| Protein | Km [1] [µM] | other results |
| --- | --- | --- |
| B1 | 276.9 ± 107.6 | – |
| B2 | – | stoichiometry N [2]: 2 |
| B3 | – | Km [3]: 126.5 ± 33.25 µM |
| B4 | 67.57 ± 21.95 | – |
